{"source": "patent US20040260064", "key": {"[1]": {"test_system": "recombinant murine macrophage stimulating protein (MSP)"}, "[2]": {"test_system": "murine MSP C677A analog", "sequence (chain, as listed by the source C677A)": "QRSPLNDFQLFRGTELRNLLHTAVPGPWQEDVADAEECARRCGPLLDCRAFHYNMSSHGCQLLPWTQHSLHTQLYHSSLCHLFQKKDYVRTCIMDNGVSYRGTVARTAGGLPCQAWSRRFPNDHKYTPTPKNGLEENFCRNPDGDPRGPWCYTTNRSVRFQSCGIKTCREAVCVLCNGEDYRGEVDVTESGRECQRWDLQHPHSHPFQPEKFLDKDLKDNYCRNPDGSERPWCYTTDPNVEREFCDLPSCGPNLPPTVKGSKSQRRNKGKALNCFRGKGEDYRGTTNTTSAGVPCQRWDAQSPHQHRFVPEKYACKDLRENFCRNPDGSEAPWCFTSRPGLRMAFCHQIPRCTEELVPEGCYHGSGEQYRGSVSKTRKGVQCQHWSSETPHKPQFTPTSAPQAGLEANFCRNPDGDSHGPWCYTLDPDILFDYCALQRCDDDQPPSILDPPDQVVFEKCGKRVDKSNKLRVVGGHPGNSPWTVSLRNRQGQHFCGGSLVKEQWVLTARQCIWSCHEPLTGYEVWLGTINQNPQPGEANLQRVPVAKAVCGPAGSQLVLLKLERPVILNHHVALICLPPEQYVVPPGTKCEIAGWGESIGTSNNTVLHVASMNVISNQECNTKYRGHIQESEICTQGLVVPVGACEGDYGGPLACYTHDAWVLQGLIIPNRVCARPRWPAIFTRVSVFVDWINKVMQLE"}, "[3]": {"test_system": "human MSP C672A analog", "sequence (chain, as listed by the source C672A)": "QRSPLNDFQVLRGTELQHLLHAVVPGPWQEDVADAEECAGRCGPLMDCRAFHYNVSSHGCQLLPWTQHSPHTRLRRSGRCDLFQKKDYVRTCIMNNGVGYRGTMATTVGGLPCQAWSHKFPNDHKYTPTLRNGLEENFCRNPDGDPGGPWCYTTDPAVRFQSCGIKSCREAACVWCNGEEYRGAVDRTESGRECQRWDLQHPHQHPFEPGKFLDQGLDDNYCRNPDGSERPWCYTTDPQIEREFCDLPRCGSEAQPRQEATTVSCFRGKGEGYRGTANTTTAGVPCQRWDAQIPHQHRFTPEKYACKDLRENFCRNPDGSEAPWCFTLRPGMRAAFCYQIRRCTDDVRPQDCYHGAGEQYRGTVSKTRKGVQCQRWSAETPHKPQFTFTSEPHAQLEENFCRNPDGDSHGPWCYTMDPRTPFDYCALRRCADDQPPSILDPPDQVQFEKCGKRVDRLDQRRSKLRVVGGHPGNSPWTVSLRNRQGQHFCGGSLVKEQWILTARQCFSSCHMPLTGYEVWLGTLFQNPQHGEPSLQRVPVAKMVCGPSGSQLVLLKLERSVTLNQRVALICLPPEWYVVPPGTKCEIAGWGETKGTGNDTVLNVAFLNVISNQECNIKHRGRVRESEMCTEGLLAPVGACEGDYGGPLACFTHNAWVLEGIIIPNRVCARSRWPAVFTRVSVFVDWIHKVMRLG"}, "[4]": {"test_system": "recombinant human macrophage stimulating protein (MSP)"}}, "data": [{"substance": "human kallikrein (Enzyme System Products)", "values": [{"measurement": "cleavage of proMSP seen by SDS-PAGE under reducing conditions", "setting": "[1]", "value": "Kallikrein treatment efficiently cleaves proMSP or proMSP analog between the α and β subunits"}, {"measurement": "cleavage of proMSP analog seen by SDS-PAGE under reducing conditions", "setting": "[2]", "value": "Kallikrein treatment efficiently cleaves proMSP or proMSP analog between the α and β subunits"}, {"measurement": "cleavage of proMSP analog seen by SDS-PAGE under reducing conditions", "setting": "[3]", "value": "Kallikrein treatment efficiently cleaves proMSP or proMSP analog between the α and β subunits"}, {"measurement": "cleavage of proMSP seen by SDS-PAGE under reducing conditions", "setting": "[4]", "value": "Kallikrein treatment efficiently cleaves proMSP or proMSP analog between the α and β subunits"}]}]}
